Test results: paper PMC3762362

Legend:
[1] = biological target: Surface-tethered actin filaments (10% AF488 labeled, 1% biotinylated) (rabbit) (UniProt P68135); assay: colocalization single molecule spectroscopy (CoSMoS, TIRF); biotinylated AF488-actin filaments tethered to the slide; Arp2/3-SNAP649 and 1 μM actin in solution, no VCA; TIRF buffer; rate constant per filament subunit
[2] = biological target: Surface-tethered actin filaments (10% AF488 labeled, 1% biotinylated) (rabbit) (UniProt P68135); assay: colocalization single molecule spectroscopy (CoSMoS, TIRF); biotinylated AF488-actin filaments tethered to the slide; 5 nM Arp2/3-SNAP649, 5 nM Cy3-diVCA construct and 1 μM actin (10% AF488 labeled) in solution; TIRF buffer; time resolution 0.15 s
[3] = biological target: Endogenous bovine Arp2/3 complex (bovine (endogenous in calf thymus)) (UniProt A7MB62); assay: fluorescence polarisation; fluorescence anisotropy competition: VVCA-A462C-AF594 reporter with 200 nM bovine Arp2/3 complex and increasing unlabeled GST-VCA, GST-VVCA or GST-VCA-C*; fit to a competition-binding isotherm
[4] = biological target: SNAP-tagged S. cerevisiae Arp2/3 complex labeled with Dy649 (Arp2/3-SNAP649) (S. cerevisiae) (UniProt P32381)
[5] = biological target: SNAP-tagged S. cerevisiae Arp2/3 complex labeled with Dy649 (Arp2/3-SNAP649) (S. cerevisiae) (UniProt P32381); remark: listed apart in the source
[6] = biological target: SNAP-tagged S. cerevisiae Arp2/3 complex labeled with Dy649 (Arp2/3-SNAP649) (S. cerevisiae) (UniProt P32381); assay: colocalization single molecule spectroscopy (CoSMoS, TIRF); biotinylated AF488-actin filaments tethered to the slide; 5 nM Arp2/3-SNAP649, 5 nM Cy3-diVCA construct and 1 μM actin (10% AF488 labeled) in solution; TIRF buffer; time resolution 0.15 s
[7] = biological target: SNAP-tagged S. cerevisiae Arp2/3 complex labeled with Dy649 and biotin (Arp2/3-SNAP649-biotin) (S. cerevisiae) (UniProt P32381); assay: colocalization single molecule spectroscopy (CoSMoS, TIRF); Arp2/3-SNAP649-biotin tethered to the slide through streptavidin; 0.1–2 nM Cy3-diVCA construct and 1 μM actin (10% AF488 labeled) in solution; periods with no filament colocalized; TIRF buffer (50 mM KCl, 1 mM MgCl2, 1 mM EGTA, 10 mM imidazole pH 7.2)
[8] = biological target: VCA-AF594 (N-WASP VCA 430–505, S430C, C431A, AlexaFluor 594 labeled) (human) (UniProt O00401); assay: fluorescence polarisation; fluorescence anisotropy of 10 nM VCA-AF594 with increasing non-polymerizable Drosophila 5C actin or yeast Arp2/3 complex; single site binding isotherm
Sequence of VCA-AF594 (N-WASP VCA 430–505, S430C, C431A, AlexaFluor 594 labeled) (human) (O00401 430-505 S430C/C431A): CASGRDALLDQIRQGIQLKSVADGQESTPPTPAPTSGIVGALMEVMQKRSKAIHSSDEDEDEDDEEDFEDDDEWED

[9] = biological target: VVCA-A462C-AF594 (N-WASP 393–505, C431A, A462C, AlexaFluor 594 labeled) (human) (UniProt O00401); assay: fluorescence polarisation; fluorescence anisotropy, direct binding of 20 nM VVCA-A462C-AF594 to bovine Arp2/3 complex; no actin; 10 min incubation
Sequence of VVCA-A462C-AF594 (N-WASP 393–505, C431A, A462C, AlexaFluor 594 labeled) (human) (O00401 393-505 C431A/A462C): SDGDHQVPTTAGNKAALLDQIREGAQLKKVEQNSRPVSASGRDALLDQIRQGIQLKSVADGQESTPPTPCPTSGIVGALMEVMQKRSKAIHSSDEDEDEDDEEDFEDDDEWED

Sequence of Cy3-diVCA wild-type (N-WASP VCA covalently dimerized with a Cy3 bis-maleimide) (O00401 other isoform, or with tags, fused parts or gaps): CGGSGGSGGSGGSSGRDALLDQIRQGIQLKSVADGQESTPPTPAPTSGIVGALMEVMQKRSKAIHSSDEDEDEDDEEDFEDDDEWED
Sequence of Cy3-diVCA-A* (Δ486–488) (O00401 other isoform, or with tags, fused parts or gaps mutant): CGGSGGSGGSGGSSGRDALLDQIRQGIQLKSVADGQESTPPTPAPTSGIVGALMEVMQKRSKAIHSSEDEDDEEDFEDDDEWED

Row | Substance | kB, second order rate constant for branch formation (per mother filament subunit), single-molecule TIRF [4] [M⁻¹ s⁻¹] | fold stimulation of Arp2/3 complex-dependent nucleation in bulk pyrene-actin assays (barbed ends at the midpoint; 25 nM diVCA construct, 10 nM Arp2/3-SNAP) [5] [fold] | kV*, rate constant for diVCA release from the nascent branch (filament-bound Arp2/3 complex) [6] [s⁻¹] | τV*, mean lifetime of diVCA on nascent branches (filament-bound Arp2/3 complex) [6] [s] | kon [7] [M⁻¹ s⁻¹] | τV1, first characteristic lifetime of diVCA on isolated Arp2/3 complexes [7] [s] | τV2, second characteristic lifetime of diVCA on isolated Arp2/3 complexes [7] [s] | fAV, fraction of Arp2/3 complexes that bind filament sides coincident with diVCA [6] | also measured
1 | SNAP-tagged S. cerevisiae Arp2/3 complex labeled with Dy649 (Arp2/3-SNAP649) (from UniProt P32381 1-391; P47117 1-449; Q05933 1-178) | – | – | – | – | – | – | – | – | kon [1]: 20000 M⁻¹ s⁻¹; kA+ (binding to filament sides, per filament subunit) with diVCA A* present [2]: 8000 M⁻¹ s⁻¹; kA+ (binding to filament sides, per filament subunit) with diVCA C* present [2]: 20000 M⁻¹ s⁻¹; kA+ (binding to filament sides, per filament subunit) with diVCA V* present [2]: 13000 M⁻¹ s⁻¹; kA+ (binding to filament sides, per filament subunit) with diVCA w.t. present [2]: 21000 M⁻¹ s⁻¹
2 | GST-VCA-C* (GST fusion of N-WASP VCA with the C* mutation) (from UniProt O00401 432-505) (domain or fragment) | – | – | – | – | – | – | – | – | fold weaker affinity than GST-VCA [3]: 4 fold
3 | Cy3-diVCA-V* (D435S/A436D) (from UniProt O00401 432-505) (domain or fragment) | 320 | 10 | 0.08 | 0.54 | 7e+07 | 3.6 | 56 | 0.7 | –
4 | Cy3-diVCA wild-type (N-WASP VCA covalently dimerized with a Cy3 bis-maleimide) (from UniProt O00401 432-505) (domain or fragment) | 160 | 2 | 0.04 | 0.7 | 1.6e+08 | 8 | 61 | 0.83 | Kd [7]: < 2 nM; percent of tethered Arp2/3 complexes observed to bind diVCA [7]: > 80%
5 | S. cerevisiae Arp2/3 complex purified from commercial baker's yeast (from UniProt P32381 1-391; P47117 1-449; Q05933 1-178) | – | – | – | – | – | – | – | – | Kd [8]: 65 nM
6 | Endogenous bovine Arp2/3 complex (from UniProt A7MB62 1-394; P61157 1-418) | – | – | – | – | – | – | – | – | Kd [9]: 150 nM

Second part, led by results:

Row | kB, second order rate constant for branch formation (per mother filament subunit), single-molecule TIRF [4] [M⁻¹ s⁻¹] | fold stimulation of Arp2/3 complex-dependent nucleation in bulk pyrene-actin assays (barbed ends at the midpoint; 25 nM diVCA construct, 10 nM Arp2/3-SNAP) [5] [fold] | kV*, rate constant for diVCA release from the nascent branch (filament-bound Arp2/3 complex) [6] [s⁻¹] | τV*, mean lifetime of diVCA on nascent branches (filament-bound Arp2/3 complex) [6] [s] | kon [7] [M⁻¹ s⁻¹] | τV1, first characteristic lifetime of diVCA on isolated Arp2/3 complexes [7] [s] | τV2, second characteristic lifetime of diVCA on isolated Arp2/3 complexes [7] [s] | Substance | fAV, fraction of Arp2/3 complexes that bind filament sides coincident with diVCA [6] | also measured
7 | 100 | 1.4 | 0.022 | 0.7 | 1.6e+08 | 40 | 250 | Cy3-diVCA-A* (Δ486–488) (from UniProt O00401 432-505) (domain or fragment) | 0.7 | –
8 | 200 | 6 | 0.05 | 0.37 | 6e+07 | 2.4 | 14 | Cy3-diVCA-C* (I467A) (from UniProt O00401 432-505) (domain or fragment) | 0.59 | –
